How the values were obtained:
[1] = target: gp120 complexed with soluble CD4 (HIV-1); experiment: yeast display flow cytometry, gp120 titrated in the presence of sCD4, MFI of antigen binding (sandwich with biotinylated mAb and SA-PE)
[2] = target: monomeric gp120 (HIV-1) (HIV-1); experiment: yeast display flow cytometry, gp120 titrated in the absence of sCD4, MFI of antigen binding (sandwich with biotinylated mAb and SA-PE)
[3] = target: antigen of Z13e1 scFv ('its antigen')

Substance | Kd [1] [nM] | Kd [2] [nM] | Kd [3] [nM]
scFv X5 displayed on yeast (X5-pPNLS in EBY100) | 1.1 | 14.5 | –
Z13e1 scFv displayed on yeast | – | – | 50

Reference: patent US20100210473A1
